Test results from patent publication US8173397B2, “Folded recombinant catalytic fragments of multidomain serine proteases, preparation and uses thereof” (TargetEx Kft., priority 2002, dated 2012).

What was measured:
C4 = C4 cleavage by MASP fragments; assay type: biochemical, human; settings: 37° C., pH 7.4; averages of 2 to 4 experiments, standard errors
Procedure: (§1) C2, C3, C3(NH3), C4 cleavage—Serial dilutions of MASP-1 and MASP-2 fragments ranging between concentrations of 1 μM and 10 pM were incubated at 37° C. in 20 mM HEPES, 140 mM NaCl, pH 7.4 with C2, C3, C3(NH3) or C4 at typical concentrations of 0.5-1 μM. The cleavage was followed by SDS-PAGE under reducing conditions. Desirable concentrations of the MASP fragments for further detailed kinetic analysis were chosen to be where half of the protein substrates were hydrolyzed during the first 20 minutes of incubation. The protein substrates C2, C3, C3(NH3) or C4 were then incubated with the selected concentrations of the MASP fragments at 37° C. in 20 mM HEPES, 140 mM NaCl, pH 7.4. Typically 11-13 samples were taken at varying time periods but always within 50 minutes from the beginning of the reaction. Cleavages rates were quantified by measuring the diminution of the cleaved chain visualized by Coomassie stained SDS-PAGs using a GEL DOC 1000 instrument and Molecular Analyst Software for densitometric calculations (Bio-Rad, Hercules, Calif., USA). The reactions were assumed to be of the Michaelis-Menten type. In the case of C3 and C3(NH3) cleavage a further reasonable assumption of KM>>[substrate] was made. The constants KM, kcat and KM/kcat were estimated by unbiased non-linear regression methods regressing the data on the following equations: t=([S0]−[S]+KMln([S0]/[S]))/(kcat[E0]) or in the case of C3 and C3(NH3) cleavage on [S]=[S0]exp(−t[E0]kcat/KM).

P1 Arg oligopeptide = test: Competing oligopeptide substrate library; assay type: biochemical; settings: same conditions
Procedure: The specificities of the MASP-1 and MASP-2 CCP1-CCP2-SP fragments were tested on a competing oligopeptide library applying the method described before (Antal, 2001).
To further investigate the range of substrate specificity and relative specific activities of MASP-1 and MASP-2 we applied a competing oligopeptide substrate library. (Antal, 2001). This library contains a mixture of seven oligopeptides (each 13 amino acids in length) with different cleavage sites (P1) for both trypsin and chymotrypsin-like enzymes (His-Ala-Ala-Pro-Xxx-Ser-Ala-Asp-Ile-Gln-Ile-Asp-Ile, SEQ ID NO:18, where Xxx could be Lys, Arg, Tyr, Leu, Phe, Trp or Pro). The individual peptide substrates compete for the protease under investigation, in our cases for either the MASP-1 CCP1-CCP2-SP or the MASP-2 CCP1-CCP2-SP fragment. […] The MASP-1 catalytic fragment (CCP1-CCP2-SP) exerted a substantially larger activity on the Arg oligopeptide substrate than the MASP-2 fragment (FIG. 7). […] MASP-2 also preferred the Arg substrate to the Lys one, but the degree of preference was much less than that of MASP-1. A very similar specificity profile was obtained for trypsin in this oligopeptide library system.

live C3 = biological target: T1, live C3 (Homo sapiens, UniProt P01024); test: Cleavage of live C3 by MASP fragments, SDS-PAGE densitometry; assay type: biochemical; settings: from kcat/KM values
T1 construct: was isolated from fresh human serum; from tissue; host or cells: fresh human serum
Procedure: as §1, with “The constants KM, kcat and KM/kcat were estimated by unbiased non-linear regression methods regressing the data on the following equations: t=([S0]−[S]+KMln([S0]/[S]))/(kcat[E0]) or in the case of C3 and C3(NH3) cleavage on [S]=[S0]exp(−t[E0]kcat/KM).” left out

[1] = Autoactivation of MASP fragments followed on reducing SDS-PAGE; assay type: biochemical; settings: after renaturation / purification
From the text: The catalytic region of MASP-1 and MASP-2, consisting of the two complement control protein modules and the serine protease domain (CCP1-CCP2-SP) (FIG. 3.) was expressed in E. coli BL-21 cells using the pET-17b expression vector. In the case of MASP-2, truncated fragments of the catalytic region (the serine protease domain with one CCP module and the serine protease domain alone) (FIG. 3) were also expressed in the same expression system. Since the recombinant proteins accumulated as inclusion bodies inside the bacterial cells, renaturation procedures were needed to restore the native, folded structure (see Materials and Methods). The renatured recombinant proteins were purified by ion exchange chromatography on Q-Sepharose Fast Flow and Mono-S columns. The renaturation and the purification procedures were followed by SDS-PAGE and the purified proteins were subjected to N-terminal sequencing. Before renaturation the inclusion body proteins yielded single bands on the reducing SDS-PAGE corresponding to the zymogen form of the enzymes. […] The MASP-1 CCP1-CCP2-SP fragment co-purified with a minor contaminant, which migrated on SDS-PAGE as a band of 24 kDa under reducing and at 39 kDa under non-reducing conditions. […] The cleavage occurred at the Arg^504-Asp^505 bond removing the histidine from the catalytic triad and thus causing the loss of its enzymatic activity. […]

T1 sequence (P01024 672-1663 limits assumed): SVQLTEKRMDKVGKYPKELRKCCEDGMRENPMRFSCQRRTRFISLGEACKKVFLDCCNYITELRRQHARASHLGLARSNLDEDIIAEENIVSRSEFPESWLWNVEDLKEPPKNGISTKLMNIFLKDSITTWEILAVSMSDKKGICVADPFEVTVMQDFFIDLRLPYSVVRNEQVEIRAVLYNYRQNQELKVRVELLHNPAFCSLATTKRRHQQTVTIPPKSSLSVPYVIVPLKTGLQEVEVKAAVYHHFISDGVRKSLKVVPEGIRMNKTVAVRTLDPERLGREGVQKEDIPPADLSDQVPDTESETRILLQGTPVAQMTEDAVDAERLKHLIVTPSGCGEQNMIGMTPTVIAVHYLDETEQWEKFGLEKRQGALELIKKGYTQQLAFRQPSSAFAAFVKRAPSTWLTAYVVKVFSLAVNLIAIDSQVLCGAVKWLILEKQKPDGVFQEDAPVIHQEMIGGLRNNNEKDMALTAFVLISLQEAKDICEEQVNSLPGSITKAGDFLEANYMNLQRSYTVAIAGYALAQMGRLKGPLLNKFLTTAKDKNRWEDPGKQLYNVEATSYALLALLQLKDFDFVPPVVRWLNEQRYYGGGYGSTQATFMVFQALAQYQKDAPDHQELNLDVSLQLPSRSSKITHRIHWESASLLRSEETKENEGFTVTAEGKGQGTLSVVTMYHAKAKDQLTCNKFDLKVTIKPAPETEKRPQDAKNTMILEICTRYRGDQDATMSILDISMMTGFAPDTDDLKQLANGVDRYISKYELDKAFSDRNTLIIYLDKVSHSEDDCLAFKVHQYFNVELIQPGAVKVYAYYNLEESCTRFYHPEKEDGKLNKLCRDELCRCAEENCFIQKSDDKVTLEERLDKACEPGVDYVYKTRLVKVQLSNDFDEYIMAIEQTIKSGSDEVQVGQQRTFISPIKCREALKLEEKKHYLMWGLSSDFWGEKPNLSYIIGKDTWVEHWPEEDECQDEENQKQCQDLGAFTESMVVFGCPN
T1 sequence (P01024 23-667 partner limits assumed): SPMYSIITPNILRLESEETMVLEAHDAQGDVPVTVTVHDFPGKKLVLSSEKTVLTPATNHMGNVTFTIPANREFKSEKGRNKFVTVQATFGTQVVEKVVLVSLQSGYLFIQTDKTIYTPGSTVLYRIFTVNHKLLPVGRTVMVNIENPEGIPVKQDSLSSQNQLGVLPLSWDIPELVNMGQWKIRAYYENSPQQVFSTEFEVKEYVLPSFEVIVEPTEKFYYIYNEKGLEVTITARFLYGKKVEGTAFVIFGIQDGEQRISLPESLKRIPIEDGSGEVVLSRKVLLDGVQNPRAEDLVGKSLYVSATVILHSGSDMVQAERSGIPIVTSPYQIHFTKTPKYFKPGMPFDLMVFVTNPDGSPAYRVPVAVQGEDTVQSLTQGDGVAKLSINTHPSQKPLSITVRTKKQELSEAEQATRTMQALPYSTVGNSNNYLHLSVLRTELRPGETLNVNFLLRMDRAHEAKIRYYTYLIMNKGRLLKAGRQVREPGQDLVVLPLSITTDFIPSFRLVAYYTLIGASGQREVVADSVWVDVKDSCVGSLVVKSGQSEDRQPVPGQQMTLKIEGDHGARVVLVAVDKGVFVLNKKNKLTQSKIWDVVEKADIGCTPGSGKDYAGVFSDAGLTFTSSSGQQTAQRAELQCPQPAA

B1: MASP-1γB: E. coli-expressed, refolded human MASP-1 CCP1-CCP2-SP fragment, Gly298 to Asn699 with N-terminal Ala-Ser-Met-Thr tag (protein)
chain 1: ASMTGNECPELQPPVHGKIEPSQAKYFFKDQVLVSCDTGYKVLKDNVEMDTFQIECLKDGTWSNKIPTCKIVDCRAPGELEHGLITFSTRNNLTTYKSEIKYSCQEPYYKMLNNNTGIYTCSAQGVWMNKVLGRSLPTCLPVCGLPKFSRKLMAR
chain 2: IFNGRPAQKGTTPWIAMLSHLNGQPFCGGSLLGSSWIVTAAHCLHQSLDPEDPTLRDSDLLSPSDFKIILGKHWRLRSDENEQHLGVKHTTLHPQYDPNTFENDVALVELLESPVLNAFVMPICLPEGPQQEGAMVIVSGWGKQFLQRFPETLMEIEIPIVDHSTCQKAYAPLKKKVTRDMICAGEKEGGKDACAGDSGGPMVTLNRERGQWYLVGTVSWGDDCGKKDRYGVYSYIHHNKDWIQRVTGVRN
With B1 the C4 kcat (C4) was 0.002 ± 0.001 s⁻¹, the “efficiency of digestion of the P1 Arg peptide relative to the corresponding fragment of MASP-2” value (P1 Arg oligopeptide) was 4-5 fold and the “proteolytic action on 'live' C3 relative to 'dead' C3 (fold less)” value (live C3) was “about 20 fold”. The “autoactivation, in words” value [1] was “fully activated”.
